Test results reported in article PMC10923291, “Quantitative description of the phase-separation behavior of the multivalent SLP65–CIN85 complex” (PNAS Nexus, 2024).
Numbering of substitutions follows the chain as printed.

T1: CIN85-ABC (UniProt Q96B97 1-333)
T1 construct: also called CIN85_(1-333); wildtype-like CIN85-ABC construct
T1 sequence (looked up): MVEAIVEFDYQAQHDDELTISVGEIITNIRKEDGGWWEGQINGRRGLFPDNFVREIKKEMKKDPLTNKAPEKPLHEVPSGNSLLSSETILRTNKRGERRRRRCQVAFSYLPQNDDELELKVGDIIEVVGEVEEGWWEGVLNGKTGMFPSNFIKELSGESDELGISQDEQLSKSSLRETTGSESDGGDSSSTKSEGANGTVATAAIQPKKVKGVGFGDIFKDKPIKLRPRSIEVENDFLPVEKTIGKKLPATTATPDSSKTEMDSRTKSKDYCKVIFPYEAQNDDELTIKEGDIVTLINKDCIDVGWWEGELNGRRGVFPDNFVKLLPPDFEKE

B1: SLP65_(1-330) (domain or fragment, UniProt Q8WV28 1-330, looked up)
chain: MDKLNKITVPASQKLRQLQKMVHDIKNNEGGIMNKIKKLKVKAPPSVPRRDYASESPADEEEQWSDDFDSDYENPDEHSDSEMYVMPAEENADDSYEPPPVEQETRPVHPALPFARGEYIDNRSSQRHSPPFSKTLPSKPSWPSEKARLTSTLPALTALQKPQVPPKPKGLLEDEADYVVPVEDNDENYIHPTESSSPPPEKAPMVNRSTKPNSSTPASPPGTASGRNSGAWETKSPPPAAPSPLPRAGKKPTTPLKTTPVASQQNASSVCEEKPIPAERHRGSSHRQEAVQSPVFPPAQKQIHQKPIPLPRFTEGGNPTVDGPLPSFSS
notes: Src homology 2 domain-containing leukocyte protein of 65 kDa (SLP65, BLNK), shortened at the C-terminus, residues 1-330, lacks the C-terminal SH2 domain; also called Wildtype SLP65_(1-330); BLNK
B2: SLP65-3xPRM4 (domain or fragment)
chain: B1 chain with I276S, A278L, E279P, I308S
modifications: 1-330 is printed; the text says PRMs are six residues long. The swapped limits are assumed: PRM5 275-280 and PRM6 307-312, each replaced by PRM4 242-247. Partly Atto430LS-labelled for microscopy.
B3: CIN85-BBB (domain or fragment)
chain: RRRRRCQVAFSYLPQNDDELELKVGDIIEVVGEVEEGWWEGVLNGKTGMFPSNFIKELSGEMKKDPLTNKAPEKPLHEVPSGNSLLSSETILRTNKRGERRRRRCQVAFSYLPQNDDELELKVGDIIEVVGEVEEGWWEGVLNGKTGMFPSNFIKELSGESDELGISQDEQLSKSSLRETTGSESDGGDSSSTKSEGANGTVATAAIQPKKVKGVGFGDIFKDKPIKLRPRSIEVENDFLPVEKTIGKKLPATTATPDSSKTEMDSRTRRRRRCQVAFSYLPQNDDELELKVGDIIEVVGEVEEGWWEGVLNGKTGMFPSNFIKELSGDFEKE
B4: SLP65-R247A (domain or fragment, UniProt Q8WV28 1-330, looked up)
chain: B1 chain with R247A
notes: the C-terminally shortened version (1-330) was used for measurements

Legend:
Assay in all cases: ITC; multivalent SLP65 constructs with multivalent CIN85 constructs (global KD); conditions in the SI Appendix
Settings in all cases: both partners purified
CIN85-ABC = target: T1, CIN85-ABC
CIN85-BBB = target: B3
SLP65_(1-330) = target: B1

Row | Kd (CIN85-ABC) | Kd (CIN85-BBB) | Kd (SLP65_(1-330)) | Binder
1 | 1360 ± 170 nM |  |  | B1
2 | 240 ± 10 nM | 140 ± 60 nM |  | B2
3 |  |  | 700 ± 250 nM | B3
4 | 7040 ± 1120 nM |  |  | B4
